Assay results: patent publication US11906524B2, “Urea biosensors and uses thereof” (Duke University, priority 2015, dated 2024)
Residue numbers refer to the chain shown, from its start. Numbers in names are those of the source.

B1: csUBP7 T91C: csUBP7 91C cysteine mutant (SEQ ID NO: 29), tested as Acrylodan and Badan conjugates (conjugate)
chain: MSSSESEKEKSEETIKVGILHSLSGTMSISEVSLKDAELMAIEEINNNGGVLGKKLEPIVEDGASDWPTFAEKAKKLLQKDKVAVIFGAWCSASRKAVLPVVEENNGLLFYPVQYEGLESSPNIFYMGAAPNQQIVPAVKWLFDNGKKRFYLLGSDYVFPRTANKIIKAYLKYLGGVVVGEEYTPLGHTDYSSVINKIKAAKPDVVFNTLNGDSNVAFFKQLKDAGIDANTLPVMSVSIAEEEIKGIGPEYLKGHLVTWNYFQSVDTPENKEFVEKYKKKYGEDRVTDDPIEAAYIGVYLWAKAVEKAGSTDVDKVREAAKGIEFNAPEGPVKIDGDNQHLYKTVRIGEILENGQIRELWKTNKPVKPDPYLKGYEWAQGLSEQGGSHHHHHH
modifications: Acrylodan or Badan conjugate; csUBP7_91C (91C substitution mutant with signal peptide replaced with M and a GGSHHHHHH at C-terminus, and also comprising a C89A substitution)
B2: csUBP7 L186C: csUBP7 186C cysteine mutant (SEQ ID NO: 40), tested as Acrylodan and Badan conjugates (conjugate)
chain: B1 chain with C91T, L186C
modifications: Acrylodan or Badan conjugate; csUBP7_186C (186C substitution mutant with signal peptide replaced with M and a GGSHHHHHH at C-terminus, and also comprising a C89A substitution)
B3: csUBP7 Y157C: csUBP7 157C cysteine mutant (SEQ ID NO: 37), tested as Acrylodan and Badan conjugates (conjugate)
chain: B1 chain with C91T, Y157C
modifications: Acrylodan or Badan conjugate; csUBP7_157C (157C substitution mutant with signal peptide replaced with M and a GGSHHHHHH at C-terminus, and also comprising a C89A substitution)
B4: csUBP7 E116C: csUBP7 116C cysteine mutant (SEQ ID NO: 36), tested as Acrylodan and Badan conjugates (conjugate)
chain: B1 chain with C91T, E116C
modifications: Acrylodan or Badan conjugate; csUBP7_116C (116C substitution mutant with signal peptide replaced with M and a GGSHHHHHH at C-terminus, and also comprising a C89A substitution)

Test: Urea titration of emission intensity spectra (Nanodrop3300) with ratiometric analysis, singly labeled conjugates
Format: binding
Parameters: key to Acrylodan Intensity / Badan Intensity: +, increases in response to urea; −, decreases; 0, no change; key to Badan Dipoles / Acrylodan Dipoles: blue, (maxima <500 nm); g, green (maxima >500 nm); b/g, mixed population; key to Acrylodan Shape / Badan Shape: m, monochromatic; d, dichromatic (i.e. spectral shape changes); 0, no change
Details: csUBP7 Acrylodan conjugate; emission intensity change on urea
Excerpt: Determination of emission intensity spectra.
(§1) Ratiometric analysis of urea binding. […] 2
(§2) For a single urea-binding site, the fractional saturation is given by
(§3) [formula] where [L] is the ligand (urea) concentration and Kd the dissociation constant, ^trueKd for ytrue.
[formula] where ^appIλ2 and ^satIλ2 are the emission intensities of the monochromatic signal at wavelength λ2 of the ligand-free and ligand-bound protein, respectively.

| Molecule | Acrylodan Intensity |
| --- | --- |
| B1 | − |
| B2 | − |
| B3 | + |
| B4 | + |

Same assay, conditions: csUBP7 Acrylodan conjugate; emission spectrum shape change on urea

| Molecule | Acrylodan Shape |
| --- | --- |
| B1 | m |
| B2 | d |
| B3 | m |
| B4 | d |

Same assay, conditions: csUBP7 Acrylodan conjugate; estimated change in populations of major emission bands

| Molecule | Acrylodan Dipoles |
| --- | --- |
| B1 | b/g |
| B2 | b/g→g |
| B4 | b/g→g |

Same assay, conditions: csUBP7 Acrylodan conjugate; urea; read-out: Acrylodan ^trueKd

| Molecule | Kd [mM] |
| --- | --- |
| B1 | 0.7 |
| B3 | 3.4 |
| B4 | 29 |

Same assay, conditions: csUBP7 Badan conjugate; emission intensity change on urea

| Molecule | Badan Intensity |
| --- | --- |
| B1 | − |
| B3 | + |
| B4 | − |

Same assay, conditions: csUBP7 Badan conjugate; emission spectrum shape change on urea

| Molecule | Badan Shape |
| --- | --- |
| B1 | d |
| B2 | 0 |
| B3 | m |
| B4 | m |

Same assay, conditions: csUBP7 Badan conjugate; estimated change in populations of major emission bands

| Molecule | Badan Dipoles |
| --- | --- |
| B1 | b/g→b |
| B2 | g (g, green (maxima >500 nm)) |
| B3 | b/g |
| B4 | b/g |

Same assay, conditions: csUBP7 Badan conjugate; urea; read-out: Badan ^trueKd

| Molecule | Kd [mM] |
| --- | --- |
| B1 | 0.6 |
| B3 | 16 |
| B4 | 10 |

Test: Temperature- and urea-dependent fluorescence landscapes of fluorescent conjugates (Roche LightCycler)
Format: binding
Parameters: key: y, yes; n, no
Details: Acrylodan conjugate; fluorescent response to urea
Description: We constructed 20 single cysteine mutants in csUBP7, exploring 7 endosteric, 12 peristeric, and 1 allosteric position (FIG. 9). At each position we attached the Prodan-derived fluorophores Acrylodan and Badan, which differ by one methylene group in their thiol-reactive linker. The fluorescent responses of these conjugates was determined initially as a function of urea concentration and temperature (FIG. 10). […] The ligand dependence of the emission spectra shapes was determined for these conjugates (Table 8).
Determination of temperature- and ligand-dependent fluorescence landscapes. […] Urea concentrations were varied from 0-4.8 M in 20 mM KCl, 20 mM MOPS (pH 7.4). […] Temperatures were advanced in 1K steps.
as §1, §2, §3
To obtain the temperature dependence of the binding reaction, the Kd values of all the individually determined isotherms were fit the Gibbs-Hemholtz equation (Layton and Hellinga, 2010, Biochemistry, 49, 10831-41):
[formula] where ΔGb^•(T) is the standard free energy of binding at 1 M ligand at temperature T,
[formula] Δ^refHb^• and Δ^refSb^• the molar enthalpy and entropy of binding, respectively, at the reference temperature, Tref, and ΔCp,b the heat capacity of the binding reaction.

| Molecule | Response |
| --- | --- |
| B1 | n |
| B2 | y |
| B3 | y |
| B4 | y |

Same assay, conditions: Badan conjugate; fluorescent response to urea

| Molecule | Response |
| --- | --- |
| B1 | y |
| B2 | n |
| B3 | y |
| B4 | y |
